Patent publication US20130344098A1

Target: anti-Fel d1 mAB 6F9
Experiment: sandwich ELISA: mAB 6F9 coated, Fel d1 protein in doubling dilutions 80-0.16 ng/ml, detected with biotinylated mAB 3E4; Fel d1 (ng/ml) at OD50%

EC50: 7.2 ng/mL
Substance: natural Fel d1 (from UniProt P30440 18-109)
